From patent publication US20030152952

System: N.BstNBI nicking endonuclease
Assay: cleavage_in_vitro

Row | Sequence | activity (relative mass units) (same conditions) | other results
1 | CCTACGACTGGAACAGTCTCACCTACGACTGGA / TCCAGTCGTAGGTGAGTCTGTTCCAGTCGTAGG [Duplex 5 T-1/B-5 1 mismatch] | 63 | 
2 | CCTACGACTGGAACAATAAAACCTACGACTGGA / AGGTGAGTCTGTTCCAGTCGTAGG [Duplex 9j T-1j/B-2] | 21.4 | 
3 | CCTACGACTGGAACAATAAAACCTACGACTGGA / TCGTAGGTGAGTCTGTTCCAGTCGTAGG [Duplex 9f/9k T-1f/B-2] |  | activity (relative mass units) (duplex 9f, 9k printed with same T strand gave 22.6): 15.9
4 | CCTACGACTGGAACAGTAACACCTACGACTGGA / GTAGGTGAGTCTGTTCCAGTCGTAGG [Duplex 8h T-1h/B-7] | 12.3 | 
5 | CCTACGACTGGAACAGTAACACCTACGACTGGA / CCAGTCGTAGGTGAGTCTGTTCCAGTCGTAGG [Duplex 8b T-1b/B-7] | 28.3 | 
6 | CCTACGACTGGAACAGTAACACCTACGACTGGA / TAGGTGAGTCTGTTCCAGTCGTAGG [Duplex 8i T-1i/B-7] | 14.9 | 
7 | CCTACGACTGGAACAGATTCACCTACGACTGGA / TCCAGTCGTAGGTGAGTCTGTTCCAGTCGTAGG [Duplex 3 T-1/B-3 1 mismatch] | 66.7 | 
8 | CCTACGACTGGAACAGTAACACCTACGACTGGA / GTCGTAGGTGAGTCTGTTCCAGTCGTAGG [Duplex 8e T-1e/B-7] | 14.6 | 
9 | CCTACGACTGGAACAGTAACACCTACGACTGGA / TCCAGTCGTAGGTGAGTCTGTTCCAGTCGTAGG [Duplex 7/8a T-1/B-7 3 mismatches] |  | activity (relative mass units) (duplex 7, repeat 8a 23.4): 21.2
10 | CCTACGACTGGAACAATAAAACCTACGACTGGA / GTCGTAGGTGAGTCTGTTCCAGTCGTAGG [Duplex 9e T-1e/B-2] | 14 | 
11 | CCTACGACTGGAACAATAAAACCTACGACTGGA / TAGGTGAGTCTGTTCCAGTCGTAGG [Duplex 9i T-1i/B-2] | 23.9 | 
12 | CCTACGACTGGAACAATAAAACCTACGACTGGA / GAGTCTGTTCCAGTCGTAGG [Duplex 9n T-1n/B-2] | 14.3 | 
13 | CCTACGACTGGAACAGTAACACCTACGACTGGA / GTGAGTCTGTTCCAGTCGTAGG [Duplex 8l T-1l/B-7] | 15.6 | 
14 | CCTACGACTGGAACAGTAACACCTACGACTGGA / GGTGAGTCTGTTCCAGTCGTAGG [Duplex 8k T-1k/B-7] | 19.3 | 
15 | CCTACGACTGGAACAGACTCACCTACGACTGGA (double strand) [Duplex 1 T-1/B-1 perfect] |  | activity (relative mass units) (nicking coupled to Vent exo- extension, LC/MS of released fragment, Mg2+, trehalose, 60 C 1 h): 121
16 | CCTACGACTGGAACAGACACACCTACGACTGGA / TCCAGTCGTAGGTGAGTCTGTTCCAGTCGTAGG [Duplex 4 T-1/B-4 1 mismatch] | 61.5 | 

Row | Sequence | activity (relative mass units) (same conditions) | other results
17 | CCTACGACTGGAACAGTAACACCTACGACTGGA / GAGTCTGTTCCAGTCGTAGG [Duplex 8n T-1n/B-7] | 12.5 | 
18 | CCTACGACTGGAACAATAAAACCTACGACTGGA / CGTAGGTGAGTCTGTTCCAGTCGTAGG [Duplex 9g/9l T-1g/B-2] |  | activity (relative mass units) (duplex 9g, 9l printed with same strands gave 22.5): 28.3
19 | CCTACGACTGGAACAGTAACACCTACGACTGGA / AGTCGTAGGTGAGTCTGTTCCAGTCGTAGG [Duplex 8d T-1d/B-7] | 29.2 | 
20 | CCTACGACTGGAACAGAAACACCTACGACTGGA / TCCAGTCGTAGGTGAGTCTGTTCCAGTCGTAGG [Duplex 6 T-1/B-6 2 mismatches] | 45 | 
21 | CCTACGACTGGAACAATAAAACCTACGACTGGA / CCAGTCGTAGGTGAGTCTGTTCCAGTCGTAGG [Duplex 9b T-1b/B-2] | 17.8 | 
22 | CCTACGACTGGAACAGTAACACCTACGACTGGA / AGGTGAGTCTGTTCCAGTCGTAGG [Duplex 8j T-1j/B-7] | 18.3 | 
23 | CCTACGACTGGAACAATAAAACCTACGACTGGA / GTAGGTGAGTCTGTTCCAGTCGTAGG [Duplex 9h T-1h/B-2] | 22.7 | 
24 | CCTACGACTGGAACAGTAACACCTACGACTGGA / CGTAGGTGAGTCTGTTCCAGTCGTAGG [Duplex 8g T-1g/B-7] | 20.8 | 
25 | CCTACGACTGGAACAGTAACACCTACGACTGGA / CAGTCGTAGGTGAGTCTGTTCCAGTCGTAGG [Duplex 8c T-1c/B-7] | 11.5 | 
26 | CCTACGACTGGAACAATAAAACCTACGACTGGA / TGAGTCTGTTCCAGTCGTAGG [Duplex 9m T-1m/B-2] | 13.5 | 
27 | CCTACGACTGGAACAATAAAACCTACGACTGGA / TCCAGTCGTAGGTGAGTCTGTTCCAGTCGTAGG [Duplex 2/9a T-1/B-2 5 mismatches] |  | activity (relative mass units) (duplex 2, repeat 9a 21.3): 18.5
28 | CCTACGACTGGAACAGTAACACCTACGACTGGA / TGAGTCTGTTCCAGTCGTAGG [Duplex 8m T-1m/B-7] | 18.3 | 
29 | CCTACGACTGGAACAATAAAACCTACGACTGGA / CAGTCGTAGGTGAGTCTGTTCCAGTCGTAGG [Duplex 9c T-1c/B-2] | 19.2 | 
30 | CCTACGACTGGAACAGTAACACCTACGACTGGA / TCGTAGGTGAGTCTGTTCCAGTCGTAGG [Duplex 8f T-1f/B-7] | 17.8 | 
31 | CCTACGACTGGAACAATAAAACCTACGACTGGA / AGTCGTAGGTGAGTCTGTTCCAGTCGTAGG [Duplex 9d T-1d/B-2] | 15.3 | 
